# Measurements as given in the RNAGym collection of RNA variant scans (doi:10.7554/elife.90254).
# B1: LINE1-full (parent)
# chain: UACGUAGGUGGUUUUCCCCUGAUAGUGCUAAGGGGGCCUGGAAGUUUGGACUGGGCAGAGCUCAACACAGCGUGGCAAAGUGGCUGUGGCUAGACUGCCUCUCUGGAUUCCUCGUCACUCAGCAGGGCAUCUCUGAGAGAAAUGCC
# Variants of: B1
# Assay: self-cleavage, relative activity (ratio to wild type); higher = more cleavage; in vitro, sequencing; the parent is a self-cleaving ribozyme
row,Variant,self-cleavage
1,UACGUAGGUGGUUUUCCCCUGAUAGUGCUAAGGGGGCCUGGAAGUUUGGACUGGGCAGAGCUCAACACAGCGUGGCAAAGUGGCUGUGGCUAGACUGCCUCUCUGGAUUCCUCGUCACUCAGCAGGGCAUCUUUGAGAGAAAUGCC [C133U],1.16
2,UACGUAGGUGGUUUUCCCCUGAUAGUGCUAAGGGGGCCUGGAAGUUUGGACUGGGCAGAGCUCAACACAGCGUGGCAAAGUGGCUGUGGCUAGACUGCCUCUCUGGAUUCCUCGUCACUCAGCAGGGCAUCUUUGGGAGAAAUGCC [C133U A136G],0.49
3,UACGUAGGUGGUUUUCCCCUGAUAGUGCUAAGGGGGCCUGGAAGUUUGGACUGGGCAGAGCUCAACACAGCGUGGCAAAGUGGCUGUGGCUAGACUGCCUCUCUGGAUUCCUCGUCACUCAGCAGGGCAUCUUUGAGCGAAAUGCC [C133U A138C],1.74
4,UACGUAGGUGGUUUUCCCCUGAUAGUGCUAAGGGGGCCUGGAAGUUUGGACUGGGCAGAGCUCAACACAGCGUGGCAAAGUGGCUGUGGCUAGACUGCCUCUCUGGAUUCCUCGUCACUCAGCAGGGCAUCUUUGAGAGGAAUGCC [C133U A140G],1.05
5,UACGUAGGUGGUUUUCCCCUGAUAGUGCUAAGGGGGCCUGGAAGUUUGGACUGGGCAGAGCUCAACACAGCGUGGCAAAGUGGCUGUGGCUAGACUGCCUCUCUGGAUUCCUCGUCACUCAGCAGGGCAUCUUUGAGAGAGAUGCC [C133U A141G],1.4
6,UACGUAGGUGGUUUUCCCCUGAUAGUGCUAAGGGGGCCUGGAAGUUUGGACUGGGCAGAGCUCAACACAGCGUGGCAAAGUGGCUGUGGCUAGACUGCCUCUCUGGAUUCCUCGUCACUCAGCAGGGCAUCUUUGAGAGAAGUGCC [C133U A142G],1.14
7,UACGUAGGUGGUUUUCCCCUGAUAGUGCUAAGGGGGCCUGGAAGUUUGGACUGGGCAGAGCUCAACACAGCGUGGCAAAGUGGCUGUGGCUAGACUGCCUCUCUGGAUUCCUCGUCACUCAGCAGGGCAUCUCAGAGGGAAAUGCC [U134A A138G],1.63
8,UACGUAGGUGGUUUUCCCCUGAUAGUGCUAAGGGGGCCUGGAAGUUUGGACUGGGCAGAGCUCAACACAGCGUGGCAAAGUGGCUGUGGCUAGACUGCCUCUCUGGAUUCCUCGUCACUCAGCAGGGCAUCUCAGAGUGAAAUGCC [U134A A138U],1.72
9,UACGUAGGUGGUUUUCCCCUGAUAGUGCUAAGGGGGCCUGGAAGUUUGGACUGGGCAGAGCUCAACACAGCGUGGCAAAGUGGCUGUGGCUAGACUGCCUCUCUGGAUUCCUCGUCACUCAGCAGGGCAUCUCAGAGAGAUAUGCC [U134A A141U],1.12
10,UACGUAGGUGGUUUUCCCCUGAUAGUGCUAAGGGGGCCUGGAAGUUUGGACUGGGCAGAGCUCAACACAGCGUGGCAAAGUGGCUGUGGCUAGACUGCCUCUCUGGAUUCCUCGUCACUCAGCAGGGCAUCUCAGAGAGAAGUGCC [U134A A142G],1.18
11,UACGUAGGUGGUUUUCCCCUGAUAGUGCUAAGGGGGCCUGGAAGUUUGGACUGGGCAGAGCUCAACACAGCGUGGCAAAGUGGCUGUGGCUAGACUGCCUCUCUGGAUUCCUCGUCACUCAGCAGGGCAUCUCAGAGAGAAAUGCU [U134A C146U],0.6
12,UACGUAGGUGGUUUUCCCCUGAUAGUGCUAAGGGGGCCUGGAAGUUUGGACUGGGCAGAGCUCAACACAGCGUGGCAAAGUGGCUGUGGCUAGACUGCCUCUCUGGAUUCCUCGUCACUCAGCAGGGCAUCUCAUAGAGAAAUGCC [U134A G135U],1.21
13,UACGUAGGUGGUUUUCCCCUGAUAGUGCUAAGGGGGCCUGGAAGUUUGGACUGGGCAGAGCUCAACACAGCGUGGCAAAGUGGCUGUGGCUAGACUGCCUCUCUGGAUUCCUCGUCACUCAGCAGGGCAUCUCAGAGAGAAAAGCC [U134A U143A],0.77
14,UACGUAGGUGGUUUUCCCCUGAUAGUGCUAAGGGGGCCUGGAAGUUUGGACUGGGCAGAGCUCAACACAGCGUGGCAAAGUGGCUGUGGCUAGACUGCCUCUCUGGAUUCCUCGUCACUCAGCAGGGCAUCUCAGAGAGAAACGCC [U134A U143C],0.63
15,UACGUAGGUGGUUUUCCCCUGAUAGUGCUAAGGGGGCCUGGAAGUUUGGACUGGGCAGAGCUCAACACAGCGUGGCAAAGUGGCUGUGGCUAGACUGCCUCUCUGGAUUCCUCGUCACUCAGCAGGGCAUCUCCGGGAGAAAUGCC [U134C A136G],1.75
16,UACGUAGGUGGUUUUCCCCUGAUAGUGCUAAGGGGGCCUGGAAGUUUGGACUGGGCAGAGCUCAACACAGCGUGGCAAAGUGGCUGUGGCUAGACUGCCUCUCUGGAUUCCUCGUCACUCAGCAGGGCAUCUCCGUGAGAAAUGCC [U134C A136U],1.26
17,UACGUAGGUGGUUUUCCCCUGAUAGUGCUAAGGGGGCCUGGAAGUUUGGACUGGGCAGAGCUCAACACAGCGUGGCAAAGUGGCUGUGGCUAGACUGCCUCUCUGGAUUCCUCGUCACUCAGCAGGGCAUCUCCGAGUGAAAUGCC [U134C A138U],1.65
18,UACGUAGGUGGUUUUCCCCUGAUAGUGCUAAGGGGGCCUGGAAGUUUGGACUGGGCAGAGCUCAACACAGCGUGGCAAAGUGGCUGUGGCUAGACUGCCUCUCUGGAUUCCUCGUCACUCAGCAGGGCAUCUCCGAGAGUAAUGCC [U134C A140U],1.02
19,UACGUAGGUGGUUUUCCCCUGAUAGUGCUAAGGGGGCCUGGAAGUUUGGACUGGGCAGAGCUCAACACAGCGUGGCAAAGUGGCUGUGGCUAGACUGCCUCUCUGGAUUCCUCGUCACUCAGCAGGGCAUCUCCGAGAGAAGUGCC [U134C A142G],1.42
20,UACGUAGGUGGUUUUCCCCUGAUAGUGCUAAGGGGGCCUGGAAGUUUGGACUGGGCAGAGCUCAACACAGCGUGGCAAAGUGGCUGUGGCUAGACUGCCUCUCUGGAUUCCUCGUCACUCAGCAGGGCAUCUCCGAGAGAAAUACC [U134C G144A],1.18

row,Variant,self-cleavage
1,UACGUAGGUGGUUUUCCCCUGAUAGUGCUAAGGGGGCCUGGAAGUUUGGACUGGGCAGAGCUCAACACAGCGUGGCAAAGUGGCUGUGGCUAGACUGCCUCUCUGGAUUCCUCGUCACUCAGCAGGGCAUCUCCGAGAGAAAAGCC [U134C U143A],1.37
2,UACGUAGGUGGUUUUCCCCUGAUAGUGCUAAGGGGGCCUGGAAGUUUGGACUGGGCAGAGCUCAACACAGCGUGGCAAAGUGGCUGUGGCUAGACUGCCUCUCUGGAUUCCUCGUCACUCAGCAGGGCAUCUCCGAGAGAAACGCC [U134C U143C],1.21
3,UACGUAGGUGGUUUUCCCCUGAUAGUGCUAAGGGGGCCUGGAAGUUUGGACUGGGCAGAGCUCAACACAGCGUGGCAAAGUGGCUGUGGCUAGACUGCCUCUCUGGAUUCCUCGUCACUCAGCAGGGCAUCUCGGAGAGAAAGGCC [U134G U143G],0.88
4,UACGUAGGUGGUUUUCCCCUGAUAGUGCUAAGGGGGCCUGGAAGUUUGGACUGGGCAGAGCUCAACACAGCGUGGCAAAGUGGCUGUGGCUAGACUGCCUCUCUGGAUUCCUCGUCACUCAGCAGGGCAUCUCUAGGAGAAAUGCC [G135A A136G],1.61
5,UACGUAGGUGGUUUUCCCCUGAUAGUGCUAAGGGGGCCUGGAAGUUUGGACUGGGCAGAGCUCAACACAGCGUGGCAAAGUGGCUGUGGCUAGACUGCCUCUCUGGAUUCCUCGUCACUCAGCAGGGCAUCUCUAAGGGAAAUGCC [G135A A138G],1.82
6,UACGUAGGUGGUUUUCCCCUGAUAGUGCUAAGGGGGCCUGGAAGUUUGGACUGGGCAGAGCUCAACACAGCGUGGCAAAGUGGCUGUGGCUAGACUGCCUCUCUGGAUUCCUCGUCACUCAGCAGGGCAUCUCUAAGAGGAAUGCC [G135A A140G],1.18
7,UACGUAGGUGGUUUUCCCCUGAUAGUGCUAAGGGGGCCUGGAAGUUUGGACUGGGCAGAGCUCAACACAGCGUGGCAAAGUGGCUGUGGCUAGACUGCCUCUCUGGAUUCCUCGUCACUCAGCAGGGCAUCUCUUAGAGUAAUGCC [G135U A140U],1.13
8,UACGUAGGUGGUUUUCCCCUGAUAGUGCUAAGGGGGCCUGGAAGUUUGGACUGGGCAGAGCUCAACACAGCGUGGCAAAGUGGCUGUGGCUAGACUGCCUCUCUGGAUUCCUCGUCACUCAGCAGGGCAUCUCUUAGAGAAACGCC [G135U U143C],1.63
9,UACGUAGGUGGUUUUCCCCUGAUAGUGCUAAGGGGGCCUGGAAGUUUGGACUGGGCAGAGCUCAACACAGCGUGGCAAAGUGGCUGUGGCUAGACUGCCUCUCUGGAUUCCUCGUCACUCAGCAGGGCAUCUCUGCGAGAAAUGCC [A136C],1.34
10,UACGUAGGUGGUUUUCCCCUGAUAGUGCUAAGGGGGCCUGGAAGUUUGGACUGGGCAGAGCUCAACACAGCGUGGCAAAGUGGCUGUGGCUAGACUGCCUCUCUGGAUUCCUCGUCACUCAGCAGGGCAUCUCUGCGAGAAAAGCC [A136C U143A],1.51
11,UACGUAGGUGGUUUUCCCCUGAUAGUGCUAAGGGGGCCUGGAAGUUUGGACUGGGCAGAGCUCAACACAGCGUGGCAAAGUGGCUGUGGCUAGACUGCCUCUCUGGAUUCCUCGUCACUCAGCAGGGCAUCUCUGGGAGAAAUGCC [A136G],1.27
12,UACGUAGGUGGUUUUCCCCUGAUAGUGCUAAGGGGGCCUGGAAGUUUGGACUGGGCAGAGCUCAACACAGCGUGGCAAAGUGGCUGUGGCUAGACUGCCUCUCUGGAUUCCUCGUCACUCAGCAGGGCAUCUCUGGGAGGAAUGCC [A136G A140G],1.51
13,UACGUAGGUGGUUUUCCCCUGAUAGUGCUAAGGGGGCCUGGAAGUUUGGACUGGGCAGAGCUCAACACAGCGUGGCAAAGUGGCUGUGGCUAGACUGCCUCUCUGGAUUCCUCGUCACUCAGCAGGGCAUCUCUGGGAGUAAUGCC [A136G A140U],1.29
14,UACGUAGGUGGUUUUCCCCUGAUAGUGCUAAGGGGGCCUGGAAGUUUGGACUGGGCAGAGCUCAACACAGCGUGGCAAAGUGGCUGUGGCUAGACUGCCUCUCUGGAUUCCUCGUCACUCAGCAGGGCAUCUCUGGGAGAACUGCC [A136G A142C],1.08
15,UACGUAGGUGGUUUUCCCCUGAUAGUGCUAAGGGGGCCUGGAAGUUUGGACUGGGCAGAGCUCAACACAGCGUGGCAAAGUGGCUGUGGCUAGACUGCCUCUCUGGAUUCCUCGUCACUCAGCAGGGCAUCUCUGGGAGAAACGCC [A136G U143C],1.47
16,UACGUAGGUGGUUUUCCCCUGAUAGUGCUAAGGGGGCCUGGAAGUUUGGACUGGGCAGAGCUCAACACAGCGUGGCAAAGUGGCUGUGGCUAGACUGCCUCUCUGGAUUCCUCGUCACUCAGCAGGGCAUCUCUGUGAGAAAUGCC [A136U],1.23
17,UACGUAGGUGGUUUUCCCCUGAUAGUGCUAAGGGGGCCUGGAAGUUUGGACUGGGCAGAGCUCAACACAGCGUGGCAAAGUGGCUGUGGCUAGACUGCCUCUCUGGAUUCCUCGUCACUCAGCAGGGCAUCUCUGUGUGAAAUGCC [A136U A138U],0.99
18,UACGUAGGUGGUUUUCCCCUGAUAGUGCUAAGGGGGCCUGGAAGUUUGGACUGGGCAGAGCUCAACACAGCGUGGCAAAGUGGCUGUGGCUAGACUGCCUCUCUGGAUUCCUCGUCACUCAGCAGGGCAUCUCUGUGAGAAGUGCC [A136U A142G],1.52
19,UACGUAGGUGGUUUUCCCCUGAUAGUGCUAAGGGGGCCUGGAAGUUUGGACUGGGCAGAGCUCAACACAGCGUGGCAAAGUGGCUGUGGCUAGACUGCCUCUCUGGAUUCCUCGUCACUCAGCAGGGCAUCUCUGAAGGAAAUGCC [G137A A138G],1.38
